The values that follow come from PMC8673433 (ImmunoHorizons, 2021).

Assay [1] has as its target full-length human TLR4 encoded by pBIND-TLR4 (human) (UniProt O00206). Kind of assay: two-hybrid.
Assay [2] addresses full-length human TLR4 encoded by pBIND-TLR4 (human, UniProt O00206 24-839). The experiment in a line: two-hybrid.

full-length human TLR4 encoded by pBIND-TLR4 (human), sequence (O00206 24-839): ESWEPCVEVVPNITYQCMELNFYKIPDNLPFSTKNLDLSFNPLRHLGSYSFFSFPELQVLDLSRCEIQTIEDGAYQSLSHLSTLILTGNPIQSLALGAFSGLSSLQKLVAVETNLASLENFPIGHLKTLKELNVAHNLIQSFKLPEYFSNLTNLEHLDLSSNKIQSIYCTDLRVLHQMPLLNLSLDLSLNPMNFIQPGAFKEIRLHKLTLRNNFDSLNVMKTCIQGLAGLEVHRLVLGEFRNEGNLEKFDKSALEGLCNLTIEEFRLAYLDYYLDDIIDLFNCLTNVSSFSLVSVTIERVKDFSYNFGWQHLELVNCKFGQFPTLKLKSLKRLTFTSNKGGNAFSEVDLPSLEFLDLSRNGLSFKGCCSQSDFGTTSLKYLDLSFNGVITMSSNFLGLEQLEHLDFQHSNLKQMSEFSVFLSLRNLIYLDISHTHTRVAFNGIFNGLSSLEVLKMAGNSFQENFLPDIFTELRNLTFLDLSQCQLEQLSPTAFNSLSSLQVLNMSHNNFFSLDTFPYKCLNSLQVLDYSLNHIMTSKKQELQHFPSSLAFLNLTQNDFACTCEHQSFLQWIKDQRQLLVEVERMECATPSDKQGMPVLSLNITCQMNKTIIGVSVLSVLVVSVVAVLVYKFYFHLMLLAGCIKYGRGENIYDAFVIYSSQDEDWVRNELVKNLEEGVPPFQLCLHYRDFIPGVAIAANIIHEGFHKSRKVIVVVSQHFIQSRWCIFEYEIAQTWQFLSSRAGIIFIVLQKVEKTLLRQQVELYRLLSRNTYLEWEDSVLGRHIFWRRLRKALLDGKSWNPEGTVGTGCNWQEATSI
full-length human TLR4 encoded by pBIND-TLR4, sequence (O00206 24-839): as above

Molecule “SPA4 peptide alanine mutant NYTXXXRG-12–19→AAAXXXAA encoded by pACT (mammalian two-hybrid fusion)” had a percent binding to TLR4 relative to SPA4 peptide (RLU) in assay [1] of 74%.

With GAFRYSDGTPVNYTNWYRGE [SPA4 peptide alanine mutant D-2→A encoded by pACT (mammalian two-hybrid fusion)], the “percent binding to TLR4 relative to SPA4 peptide (RLU)” value in assay [2] is 81%.
